Earlier results as cited in article PMC12687463.
Read-outs that look alike come from different tables or passages of the source.

Assays:
[1] = molecular target: glucokinase regulatory protein (GKRP) (Homo sapiens) (UniProt Q14397)
[2] = molecular target: glucokinase regulatory protein (GKRP) (Homo sapiens) (UniProt Q14397); remark: listed apart in the source
[3] = molecular target: glucokinase regulatory protein (GKRP) (Homo sapiens) (UniProt Q14397); remark: listed apart in the source

Chain of UniProt Q14397 (Q14397 whole entry): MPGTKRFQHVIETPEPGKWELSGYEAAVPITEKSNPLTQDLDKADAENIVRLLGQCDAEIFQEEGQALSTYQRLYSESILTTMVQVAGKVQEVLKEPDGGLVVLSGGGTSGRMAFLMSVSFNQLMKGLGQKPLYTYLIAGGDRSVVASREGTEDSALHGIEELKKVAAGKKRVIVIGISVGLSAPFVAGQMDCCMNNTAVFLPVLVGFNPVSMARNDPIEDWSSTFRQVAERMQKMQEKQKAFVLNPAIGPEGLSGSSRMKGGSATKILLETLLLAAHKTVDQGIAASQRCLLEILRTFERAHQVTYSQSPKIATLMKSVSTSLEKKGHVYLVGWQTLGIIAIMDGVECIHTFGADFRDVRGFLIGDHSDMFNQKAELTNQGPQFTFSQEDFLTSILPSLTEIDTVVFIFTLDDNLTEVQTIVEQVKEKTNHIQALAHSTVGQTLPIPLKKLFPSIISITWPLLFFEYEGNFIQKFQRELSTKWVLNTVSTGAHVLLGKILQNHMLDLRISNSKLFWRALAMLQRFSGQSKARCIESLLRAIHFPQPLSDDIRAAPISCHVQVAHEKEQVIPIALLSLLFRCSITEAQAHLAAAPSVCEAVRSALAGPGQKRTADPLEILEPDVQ
Chain of glucokinase (P35557 whole entry): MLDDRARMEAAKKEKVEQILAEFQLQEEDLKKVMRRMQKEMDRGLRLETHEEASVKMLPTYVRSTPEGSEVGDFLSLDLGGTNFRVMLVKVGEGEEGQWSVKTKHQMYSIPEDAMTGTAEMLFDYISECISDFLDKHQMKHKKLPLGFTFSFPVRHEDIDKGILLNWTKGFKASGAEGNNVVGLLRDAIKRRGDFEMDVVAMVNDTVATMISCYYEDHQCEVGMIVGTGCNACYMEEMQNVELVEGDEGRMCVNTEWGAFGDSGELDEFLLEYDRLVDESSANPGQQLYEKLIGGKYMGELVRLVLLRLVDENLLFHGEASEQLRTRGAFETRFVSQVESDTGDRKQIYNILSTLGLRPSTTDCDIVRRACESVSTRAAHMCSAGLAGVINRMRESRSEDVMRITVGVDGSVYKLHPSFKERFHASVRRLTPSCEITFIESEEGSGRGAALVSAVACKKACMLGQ

- Ki [1]: 0.984 µM
- Ki [2]: 7 µM
- Ki [3]: 0.045 µM
Substance: glucokinase (from UniProt P35557)
